Results reported in patent US20150344570A1 (published 2015).

T1: FcγRIIb extracellular domain with C-terminal His tag (human, UniProt P31994 43-217)
T1 construct: extracellular domain; Soluble receptor expressed in FreeStyle293 cells and used as analyte in Biacore; also called FcgRIIb; 2b; not shown: His tag at the C terminus
T1 sequence (looked up): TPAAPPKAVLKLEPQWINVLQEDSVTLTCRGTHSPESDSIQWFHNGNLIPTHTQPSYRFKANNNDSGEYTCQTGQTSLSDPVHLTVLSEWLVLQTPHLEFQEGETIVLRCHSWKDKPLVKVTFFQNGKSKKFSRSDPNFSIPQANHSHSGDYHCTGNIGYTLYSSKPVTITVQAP

B1: GpH7-A5/GpH7-B3 variant I336_13S/GpL16-k0 (antibody, human IgG1, kappa)
heavy 1: not shown
heavy 2: not shown
light: DIVMTQSPLSLPVTPGEPASISCQASESLVHSNRNTYLHWYLQKPGQSPQLLIYKVSNRFSGVPDRFSGSGSGTDFTLKISRVEAEDVGVYYCSQNTHVPPTFGQGTKVEIERTVAAPSVFIFPPSDEQLKSGTASVVCLLNNFYPREAKVQWKVDNALQSGNSQESVTEQDSKDSTYSLSSTLTLSKADYEKHKVYACEVTHQGLSSPVTKSFNRGEC
notes: Heterodimerized anti-glypican-3 IgG1 (He Ab); The mutation is in the GpH7-B3 chain only; also called He Ab with I336S in GpH7-B3
B2: GpH7-A5/GpH7-B3 variant I336_19Q/GpL16-k0 (antibody, human IgG1, kappa)
heavy 1: not shown
heavy 2: not shown
light: B1 light
notes: Heterodimerized anti-glypican-3 IgG1 (He Ab); The mutation is in the GpH7-B3 chain only; also called He Ab with I336Q in GpH7-B3
B3: GpH7-A5/GpH7-B3 variant K334_20W/GpL16-k0 (antibody, human IgG1, kappa)
heavy 1: not shown
heavy 2: not shown
light: B1 light
notes: Heterodimerized anti-glypican-3 IgG1 (He Ab); The mutation is in the GpH7-B3 chain only; also called He Ab with K334W in GpH7-B3
B4: GpH7-A5/GpH7-B3 variant K334_15Y/GpL16-k0 (antibody, human IgG1, kappa)
heavy 1: not shown
heavy 2: not shown
light: B1 light
notes: Heterodimerized anti-glypican-3 IgG1 (He Ab); The mutation is in the GpH7-B3 chain only; also called He Ab with K334Y in GpH7-B3
B5: GpH7-A5/GpH7-B3 variant I336_15Y/GpL16-k0 (antibody, human IgG1, kappa)
heavy 1: not shown
heavy 2: not shown
light: B1 light
notes: Heterodimerized anti-glypican-3 IgG1 (He Ab); The mutation is in the GpH7-B3 chain only; also called He Ab with I336Y in GpH7-B3
B6: GpH7-A5/GpH7-B3 variant K334_14T/GpL16-k0 (antibody, human IgG1, kappa)
heavy 1: not shown
heavy 2: not shown
light: B1 light
notes: Heterodimerized anti-glypican-3 IgG1 (He Ab); The mutation is in the GpH7-B3 chain only; also called He Ab with K334T in GpH7-B3
B7: GpH7-A5/GpH7-B3 variant K334_19Q/GpL16-k0 (antibody, human IgG1, kappa)
heavy 1: not shown
heavy 2: not shown
light: B1 light
notes: Heterodimerized anti-glypican-3 IgG1 (He Ab); The mutation is in the GpH7-B3 chain only; also called He Ab with K334Q in GpH7-B3
B8: GpH7-A5/GpH7-B3 variant I336_14T/GpL16-k0 (antibody, human IgG1, kappa)
heavy 1: not shown
heavy 2: not shown
light: B1 light
notes: Heterodimerized anti-glypican-3 IgG1 (He Ab); The mutation is in the GpH7-B3 chain only; also called He Ab with I336T in GpH7-B3
B9: GpH7-A5/GpH7-B3 variant K334_10E/GpL16-k0 (antibody, human IgG1, kappa)
heavy 1: not shown
heavy 2: not shown
light: B1 light
notes: Heterodimerized anti-glypican-3 IgG1 (He Ab); The mutation is in the GpH7-B3 chain only; also called He Ab with K334E in GpH7-B3
B10: GpH7-A5/GpH7-B3 variant K334_13S/GpL16-k0 (antibody, human IgG1, kappa)
heavy 1: not shown
heavy 2: not shown
light: B1 light
notes: Heterodimerized anti-glypican-3 IgG1 (He Ab); The mutation is in the GpH7-B3 chain only; also called He Ab with K334S in GpH7-B3
B11: GpH7-A5/GpH7-B3 variant (H268D)/GpL16-k0 (antibody, human IgG1, kappa)
heavy 1: not shown
heavy 2: not shown
light: B1 light
notes: also called He Ab H268_09D
B12: GpH7-A5/GpH7-B3 variant (A330P)/GpL16-k0 (antibody, human IgG1, kappa)
heavy 1: not shown
heavy 2: not shown
light: B1 light
notes: also called He Ab A330_05P
B13: GpH7-A5/GpH7-B3 variant (K334E)/GpL16-k0 (antibody, human IgG1, kappa)
heavy 1: not shown
heavy 2: not shown
light: B1 light
notes: also called He Ab K334_10E
B14: GpH7-A5/GpH7-B3 variant (K326I)/GpL16-k0 (antibody, human IgG1, kappa)
heavy 1: not shown
heavy 2: not shown
light: B1 light
notes: also called He Ab K326_07I
B15: GpH7-A5/GpH7-B3 variant (K334D)/GpL16-k0 (antibody, human IgG1, kappa)
heavy 1: not shown
heavy 2: not shown
light: B1 light
notes: also called He Ab K334_09D
B16: GpH7-A5/GpH7-B3 variant (K326T)/GpL16-k0 (antibody, human IgG1, kappa)
heavy 1: not shown
heavy 2: not shown
light: B1 light
notes: also called He Ab K326_14T
B17: GpH7-A5/GpH7-B3-15-02A/GpL16-k0 (antibody, human IgG1, kappa)
heavy 1: not shown
heavy 2: not shown
light: B1 light
notes: also called GpH7-A5/GpH7-B3 variant (S298A)/GpL16-k0; He Ab S298_02A
B18: GpH7-A5/GpH7-B3 variant (H268E)/GpL16-k0 (antibody, human IgG1, kappa)
heavy 1: not shown
heavy 2: not shown
light: B1 light
notes: also called He Ab H268_10E
B19: GpH7-A5/GpH7-B3 variant (A330M)/GpL16-k0 (antibody, human IgG1, kappa)
heavy 1: not shown
heavy 2: not shown
light: B1 light
notes: also called He Ab A330_06M
B20: GpH7-A5/GpH7-B3 variant (K334I)/GpL16-k0 (antibody, human IgG1, kappa)
heavy 1: not shown
heavy 2: not shown
light: B1 light
notes: also called He Ab K334_07I
B21: GpH7-A5/GpH7-B3 variant (K326D)/GpL16-k0 (antibody, human IgG1, kappa)
heavy 1: not shown
heavy 2: not shown
light: B1 light
notes: also called He Ab K326_09D
B22: GpH7-A5/GpH7-B3 variant (H268A)/GpL16-k0 (antibody, human IgG1, kappa)
heavy 1: not shown
heavy 2: not shown
light: B1 light
notes: also called He Ab H268_02A
B23: GpH7-A5/GpH7-B3 variant (A330F)/GpL16-k0 (antibody, human IgG1, kappa)
heavy 1: not shown
heavy 2: not shown
light: B1 light
notes: also called He Ab A330_04F

Target: T2, FcγRIIIa extracellular domain with C-terminal His tag (human, UniProt P08637 17-208)
T2 construct: extracellular domain; also called FcgRIIIa; 3a; not shown: His tag at the C terminus
Experiment: SPR (Biacore); He/Con for FcγRIIIa divided by He/Con for FcγRIIb
Experimental: (§1) The heterodimerized antibodies He Abs in which one of the H chains was introduced with an alteration were assayed for their binding activities to each activating FcγR and inhibitory FcγR according to the method described in Example 4. […] The activating FcγRs in FIGS. 26, 27, 28, and 29 are FcγRIa, FcγRIIa (R), FcγRIIa (H), and FcγRIIIa, respectively.
(§2) Analysis of interaction between objective antibody and the FcγR was carried out using Biacore T100 (GE Healthcare). HBS-EP+ (GE Healthcare) was used as the running buffer, and the measurement temperature was set to 25° C. Chips produced by immobilizing the antigen peptide by the amine coupling method to a Series S Sencor Chip CM5 (GE Healthcare), or alternatively, chips produced by allowing preliminarily biotinylated antigen peptides to interact with and immobilize onto a Series S Sensor Chip SA (certified) (GE Healthcare) were used. Antibodies of interest were captured onto an antigen peptide-immobilized chip, and allowed to interact to each FcγR diluted with running buffer. To regenerate and repeatedly use the chip, the antibodies captured on the chip were washed off by reacting 10 mM glycine-HCl, pH 1.5.

T2 sequence (P08637 17-208): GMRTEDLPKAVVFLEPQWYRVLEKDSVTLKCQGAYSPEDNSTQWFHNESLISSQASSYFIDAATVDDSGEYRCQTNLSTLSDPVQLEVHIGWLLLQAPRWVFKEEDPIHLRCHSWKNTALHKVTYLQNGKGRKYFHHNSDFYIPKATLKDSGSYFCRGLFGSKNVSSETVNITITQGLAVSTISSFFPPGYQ

Row | He_3a/2b (IIIa/IIb) | Binder
1 | 1.21 ratio | B1
2 | 1.59 ratio | B2
3 | 1.23 ratio | B3
4 | 1.29 ratio | B4
5 | 1.28 ratio | B5
6 | 1.23 ratio | B6
7 | 1.25 ratio | B7
8 | 1.21 ratio | B8
9 | 1.58 ratio | B9
10 | 1.31 ratio | B10

Target: T3, FcgRIIIa F (FcγRIIIa type F) extracellular domain with C-terminal His tag (human, UniProt P08637 17-208)
T3 construct: extracellular domain; also called FcγRIIIa F; 3aF; not shown: His tag attached to the C terminus
Experiment: SPR (Biacore); relative binding activity of the heterodimerized antibody with the alteration in one H chain

T3 sequence (P08637 17-208): as above

Row | He/Con_3aF | Binder
11 | 195 % of GpH7-A5/GpH7-B3/GpL16-k0 (= 100) | B11
12 | 152 % of GpH7-A5/GpH7-B3/GpL16-k0 (= 100) | B12
13 | 186 % of GpH7-A5/GpH7-B3/GpL16-k0 (= 100) | B13
14 | 153 % of GpH7-A5/GpH7-B3/GpL16-k0 (= 100) | B14
15 | 164 % of GpH7-A5/GpH7-B3/GpL16-k0 (= 100) | B15
16 | 140 % of GpH7-A5/GpH7-B3/GpL16-k0 (= 100) | B16
17 | 151 % of GpH7-A5/GpH7-B3/GpL16-k0 (= 100) | B17
18 | 184 % of GpH7-A5/GpH7-B3/GpL16-k0 (= 100) | B18
19 | 139 % of GpH7-A5/GpH7-B3/GpL16-k0 (= 100) | B19
20 | 156 % of GpH7-A5/GpH7-B3/GpL16-k0 (= 100) | B20
21 | 148 % of GpH7-A5/GpH7-B3/GpL16-k0 (= 100) | B21
22 | 121 % of GpH7-A5/GpH7-B3/GpL16-k0 (= 100) | B22
23 | 144 % of GpH7-A5/GpH7-B3/GpL16-k0 (= 100) | B23

Target: T1, FcγRIIb extracellular domain with …
Experiment: SPR (Biacore), antibody captured on antigen-peptide chip, FcγR as analyte; relative binding amount
Experimental: as §1, §2

Row | He/Con_2b (IIb binding) | Binder
24 | 83.7 relative, GpH7-A5/GpH7-B3/GpL16-k0 = 100 | B1
25 | 58.2 relative, GpH7-A5/GpH7-B3/GpL16-k0 = 100 | B2
26 | 104 relative, GpH7-A5/GpH7-B3/GpL16-k0 = 100 | B3
27 | 109 relative, GpH7-A5/GpH7-B3/GpL16-k0 = 100 | B4
28 | 68.2 relative, GpH7-A5/GpH7-B3/GpL16-k0 = 100 | B5
29 | 115 relative, GpH7-A5/GpH7-B3/GpL16-k0 = 100 | B6
30 | 109 relative, GpH7-A5/GpH7-B3/GpL16-k0 = 100 | B7
31 | 89.5 relative, GpH7-A5/GpH7-B3/GpL16-k0 = 100 | B8
32 | 114 relative, GpH7-A5/GpH7-B3/GpL16-k0 = 100 | B9
33 | 111 relative, GpH7-A5/GpH7-B3/GpL16-k0 = 100 | B10

Target: T2, FcγRIIIa extracellular domain with …
Experiment: as above
Experimental: as §1, §2

Row | He/Con_3a (IIIa binding) | Binder
34 | 102 relative, GpH7-A5/GpH7-B3/GpL16-k0 = 100 | B1
35 | 92.5 relative, GpH7-A5/GpH7-B3/GpL16-k0 = 100 | B2
36 | 128 relative, GpH7-A5/GpH7-B3/GpL16-k0 = 100 | B3
37 | 141 relative, GpH7-A5/GpH7-B3/GpL16-k0 = 100 | B4
38 | 87.3 relative, GpH7-A5/GpH7-B3/GpL16-k0 = 100 | B5
39 | 141 relative, GpH7-A5/GpH7-B3/GpL16-k0 = 100 | B6
40 | 136 relative, GpH7-A5/GpH7-B3/GpL16-k0 = 100 | B7
41 | 108 relative, GpH7-A5/GpH7-B3/GpL16-k0 = 100 | B8
42 | 181 relative, GpH7-A5/GpH7-B3/GpL16-k0 = 100 | B9
43 | 145 relative, GpH7-A5/GpH7-B3/GpL16-k0 = 100 | B10
